# Measured values: patent US20240239894A1, “THERAPEUTIC BINDING MOLECULES” (MedImmune Limited, priority 2020, published 2024)
# Entries after “also recorded” stand apart in the source; their conditions may differ.
# B1: E02-GL: germlined ZY0EQD-E02, VH SEQ ID NO: 45, VL SEQ ID NO: 34; antibody intermediate of E02-GL-SG3932 (antibody, V domains shown)
# VH: QVQLQQWGAGLLKPSETLSLACTVYGGSFSGYYWNWIRQPPGKGLEWIGEINHSGSTSYNPSLKSRVTISVDTSKNQFSLKLSSVTAADTAVYYCARVLYNWNVDSWGQGTLVTVSS
# VL: DIQMTQSPSSLSASVGDRVTITCRASQDIRNDVGWYQQKPGKAPKRLIYAASRLQSGVPSRFSGSGSGTEFTLTISSLQPEDFATYYCLQHNSYPRTFGQGTKVEIK
# B2: E02-GL-SG3249: clone E02-GL (Maia heavy chain backbone) conjugated to the PBD cytotoxin SG3249 (conjugate)
# heavy: QVQLQQWGAGLLKPSETLSLACTVYGGSFSGYYWNWIRQPPGKGLEWIGEINHSGSTSYNPSLKSRVTISVDTSKNQFSLKLSSVTAADTAVYYCARVLYNWNVDSWGQGTLVTVSSASTKGPSVFPLAPSSKSTSGGTAALGCLVKDYFPEPVTVSWNSGALTSGVHTFPAVLQSSGLYSLSSVVTVPSSSLGTQTYICNVNHKPSNTKVDKRVEPKSCDKTHTCPPCPAPELLGGPSCVFLFPPKPKDTLMISRTPEVTCVVVDVSHEDPEVKFNWYVDGVEVHNAKTKPREEQYNSTYRVVSVLTVLHQDWLNGKEYKCKVSNKALPAPIEKTISKAKGQPREPQVYTLPPSREEMTKNQVSLTCLVKGFYPSDIAVEWESNGQPENNYKTTPPVLDSDGSFFLYSKLTVDKSRWQQGNVFSCSVMHEALHNHYTQKSLSLSPGK
# light: DIQMTQSPSSLSASVGDRVTITCRASQDIRNDVGWYQQKPGKAPKRLIYAASRLQSGVPSRFSGSGSGTEFTLTISSLQPEDFATYYCLQHNSYPRTFGQGTKVEIKRTVAAPSVFIFPPSDEQLKSGTASVVCLLNNFYPREAKVQWKVDNALQSGNSQESVTEQDSKDSTYSLSSTLTLSKADYEKHKVYACEVTHQGLSSPVTKSFNRGEC
# Key:
# [1] = tested on: SK-BR-3 cells; assay: Flow cytometry binding; format: cell-based, human; conditions: 31, 156 and 78 ng/ml; compared with 1D11
# Procedure: (§1) Cells were detached from tissue culture flasks by accutase (Gibco, Paisley, UK), pelleted by centrifugation, and resuspended in ice cold DPBS (Gibco, Paisley, UK). Viable cells were counted by trypan blue exclusion using a haemocytometer. Cell densities were adjusted to 5×10^6 cells/mL in DPBS. 100 μL of the cell suspension (5×10^5 cells) was added to 96-well V-bottomed plates and placed on ice. Then, the cells were incubated with Live/Dead fixable violet stain (ThermoFisher Scientific, Loughborough, UK) for 20 minutes on ice. Following a wash with flow cytometry buffer (eBiosciences, Hatfield, UK), the cells were incubated on ice for 30 minutes in 100 μL flow cytometry buffer alone (unstained control cells) or supplemented with AF647-labelled anti-B7H4 antibodies (e.g. E02-GL or 1D11) or isotype R347 at a concentration ranging from 10 µg/ml to 78 ng/ml. […] FlowJo cytometry analysis software (Treestar, Ashland, OR, USA) was used to quantify antibody binding to cells as follows. Live, single cells were gated based on forwards scatter, side scatter, and Live/Dead violet fluorescence intensity and the AF647 geometric mean fluorescence intensity (MFI) was determined. […]
# [2] = tested on: hB7-H4 expressing HT29 cells; assay: Flow cytometry binding; format: cell-based, human; conditions: 31, 156 and 78 ng/ml; compared with 1D11
# Procedure: as §1
# [3] = tested on: Zr75-1; assay: E02-GL MESF on cell line; format: cell-based
# [4] = tested on: HEK 293 Jump In TREX cells stably expressing cynomolgus monkey B7-H4; assay: Flow cytometry binding; format: cell-based
# From the text: (§2) Flow cytometry was used to measure binding of antibody E02-INT to non-transduced HEK 293 Jump In TREX cells and to HEK 293 Jump In TREX cells stably expressing human, murine, or cynomolgus monkey B7-H4.
# [5] = tested on: HEK 293 Jump In TREX cells stably expressing human B7-H4; assay: Flow cytometry binding; format: cell-based
# From the text: as §2
# [6] = tested on: HEK 293 Jump In TREX cells stably expressing murine B7-H4; assay: Flow cytometry binding; format: cell-based; conditions: listed as E02-INT
# From the text: as §2
# [7] = tested on: non-transduced HEK 293 Jump In TREX cells; assay: Flow cytometry binding; format: cell-based; conditions: B7-H4-negative
# From the text: as §2
# [8] = tested on: B7-H4-negative non-transduced HT29; assay: Flow cytometry binding; format: cell-based, human
# [9] = tested on: HBCx-10; assay: PDX model; format: in vivo; conditions: HBCx-10, Breast (Triple negative); 0.3 mg/kg vs vehicle
# From the text: Patient derived xenograft models were generated using cancer cell lines with varying levels of B7-H4 expression, as outlined in Table 16. […] “E02-GL” antibody has the CDR/VH sequences (e.g. corresponds to) of ZY0EQD-E02 (“GL” means the antibody has been germlined).
Molecule,binding to B7-H4 expressed on cancer cells [1],binding to B7-H4 expressed on cancer cells [2],E02-GL MESF [3],cellular binding [4],cellular binding [5],cellular binding [6],cellular binding [7],cellular binding [8],% Tumour Growth Inhibition (TGI) [9] [%]
B1,superior binding,superior binding,"80,699 MESF",bound,bound,bound; also recorded: reduced compared to cells expressing human or cynomolgus monkey B7-H4,did not bind,did not bind,–
B2,–,–,–,–,–,–,–,–,90
